Laboratory results reported in the DeepSol protein solubility set.

assay: soluble on expression in E. coli; label from the status in PepcDB or PDB records

Row | Sequence | soluble on expression in E. coli
1 | MSLGTVTITEMDCVDGVHRIGVATLDNTPSLNALTFDMLLQLHDQLIKWQHDPHVVCVVLSGAGEKAFCAGGDVRAMYHVMHNESKEATVEFCTKYFALEYECDYLIHTYNKPIIGWGEGIVMGGGMGLFMGTSHKVVTPISRLAMPEINIGLYPDVGGTWFLSQIDPEVGLFLGLTGALVNSSDAVTTGLADWLLLEEQYPTLLKELQKVPWGTSGAKELVSALLALLEEQIIDSKPTTQICPHLEQIKEACKGVDLNLIAQRIMAMEDSSPWIAGAKETFSSGSPITAHICFRQVKEYHRLPLADCFRLELSLSVRCALLGEFEEGVRARLIDRDGEPNWMFKTVSEVDEDVIDLLFTSLWADAEHPLAKLGEGHHHHHH | soluble
2 | MSLGYNFHLSDMQAQLEQQAAEEETLKQQFSTKAFQAANLEAYKAQMKEMEESFGALLRQLPSDTEVPGLLEDITRTGLGSGLEFEEIKLLPEVAQQFYIELPIQISVVGGYHDLATFVSGVSSLPRIVTLHDFEIKPVAPGSTSKLRMSILAKTYRYNDKGLKKEGHHHHHH | soluble
3 | MSLGYTTAKKEVSVVIEDGINEIINKTERFVSLKLESDISLASSIVDSISLRISDEQYINDIINGNAIKKAFLSTGFGFDSNGKVIENDPNWEPEDDYDPRSRGWYQEAKKNKRIFITEPYLDTEGKNFLVSISSPVADTMNNFIGAMYFDVDLSRIQKNVDDINLFEAGYVFITSNTGKVIIHSNTDELGKNVKDIYNGFRLDKGKVVLSVNGVNKWLYTSPILGGDWFIIAVIDESIAMQSINKMKYEEGHHHHHH | soluble
4 | MSLHAVDHHAILARFAPSRGGDGNIFRDIDPSRLAHIVVDMQNGFMEEGAPVEVPVARTIVDNINRISAAVRDAGGHNVFLRYTTPPEGGPSWSNFMVRMGREAQGHREAFTPGAHHWQLWPTLDVREADAIVDKHRFSGFTPGTCALKDVLDARGIDTVLITGTLTNCCCESTARDAMQHNYRVLMASDANAALSDEEHAATLHIMAMVFADLHSTQEVVDLLGSEGHHHHHH | soluble
5 | MSLHDVRVYHVQQPMRVGFGHPAATRTTSESVVLELDISGCVGLGECAPRSYVTGETCVTVCDALRSLPLARIIDELLSESPNDVLYRIKRLGIEAAFDFTAANNVVCIVELAILDWIGKRTRVSLDAMLRNGASLAESSAPIKISQVLDQNLTVDDFLRERGPFHFVKIKAHRDRAKDLETVTEIRRAIGDDTPIVIDANMSWSLIEAVEHVRKLREAGLTMVEEPFSKRSWTELHELRVQTGISIMLDESVSTLDDLRRAIGSDSCDAVNVRVSKCGGVLRSIEMIELAKSFGIQFQIGVQVAECGPLIQAGRLLASLHRDAIAVEGGQADRFFDSMIVSPDLSFDRARSTVPPPAGFGLGLSTSTEISKYLAFGYSRSADEWTATSHYTEAEGHHHHHH | soluble
6 | MSLHPASANLSPSSVKNCSAKTFGFLILPNFTTIGLASAVETLRMANLAARKPLYRSVLIAADDAPVVASNGMRVLPDYNITNAPALDALLVVGANPIDRSRSNRPLIDWLRQLARQRLPLGGICTGSYLLAKAELLKGYRCTIHWEDLPTLQAHFPGIVISSQLFELDRDRYTCSGGVAAMDMMLQLVARDTGGQDIAAKAAELLLCDRVRGEREGHHHHHH | soluble
7 | MSLHWLNRNTRKGSQKNIAAHYDLGNTLFEQFLDPTMMYSAAQFLSNDDTLEQAQLNKLERICQKLALKPTDHLLEIGTGWGSMAIYAAQQYGCRVTTTTLSREQFAYTEQRLIKLGLQDRVTLLLTDYRDLTGEYDKLVSIEMIEAVGHRFLPTYFKQCASLLKSNGMMLLQAITIREQRYAQAKRNVDFIQRYIFPGGALPSVAKMLDIVGSDTDMNLLHMEDFGLHYARTLRLWHDNFKHAHGTLTELGYDDYFLRLWEFYLCYCEGGFLERTIGTAQLLLAKPDALREGHHHHHH | not soluble
8 | MSLHYPFVTNDDIEWMLSICVEWRLPEIAKEIYTTLGNQMLSAHNIIESIANFSRAGKYELVKSYSWLLFEASCMEGQKLDDPVLNAIVSKNSPAEDDVIIPQDILDCVVTNSMRQTLAPYAVLSQFYELRDREDWGQALRLLLLLIEFPYLPKHYLVLLVAKFLYPIFLLDDKKLMDEDSVATVIEVIETKWDDADEKSSNLYETIIEADKSLPSSMATLLKNLRKKLNFKLCQAFMEGHHHHHH | not soluble
9 | MSLIAIYVRVSTEEQAIKGSSIDSQIEACIKKAGTKDVLKYADEGFSGELLERPALNRLREDASKGLISQVICYDPDRLSRKLMNQLIIDDELRKRNIPLIFVNGEYANSPEGQLFFAMRGAISEFEKAKIKERTSSGRLQKMKKGMIIKDSKLYGYKFVKEKRTLEILEEEAKIIRMIFNYFTDHKSPFFGRVNGIALHLTQMGVKTKKGEGHHHHHH | not soluble
10 | MSLIGALIATIIPGLSNNSPPTQLSSLATLALPLPPPYTSTADTWRMVTIKPGQTLSSIFNELKLSSNDMERVLNYADLRKLLTRLSPGDEISFDIPNDGQLRGMRFNRDEKHRVELTLDDNTIHQQVSERQTSTRTVIASGEIKSSLWIAAREAGLSPADVITLTDEIFKYDIDFDKDLQTGDRFSVVMDETWREGERLPDAKILAATFNTGGKIYSGMRFMRDGKVEYFDKDGRPLKKSFIRMPISYARLSSTFGLRRHPILGTMRMHKGVDYAAATGTPIMAAGDARVQFIGQQRGYGNVVILNHGKGYRTLYGHMSRFGKIKAGQKINQGTVIGYVGMTGLATGPHLHYEFQVNGQHRNPLSITMPPPEPLRGKDLIAFRTQTAPLIAQIQQYEKRFYAITNKHDSKSTEKSTRGEGHHHHHH | not soluble
11 | MSLIIAIQGGMAVGKTTALKIIEKVYPKIAISFEDISPVVDKINKHQLDNNKLDDYCEIQQLFIQHERDRYELVRDNEIVLMDYGAEEIAFYTQYFPKVAGYSWTLPSNLLLEVNRLKECFADYIIFLDADKTVLYQRQKNDFNRRRHFFKWYTHHLLPAKKHYLDTFSNVIHINTNHLNAEEVAEKIIDIIRKLTEGHHHHHH | soluble
12 | MSLIIETPSKVILFGEHAVVYGYRAISMAIDLTSTIEIKETQEDEIILNLNDLNKSLGLNLNEIKNINPNNFGDFKYCLCAIKNTLDYLNIEPKTGFKINISSKIPISCGLGSSASITIGTIKAVSGFYNKELKDDEIAKLGYMVEKEIQGKASITDTSTITYKGILEIKNNKFRKIKGEFEEFLKNCKFLIVYAEKRKKKTAELVNEVAKIENKDEIFKEIDKVIDEALKIKNKEDFGKLMTKNHELLKKLNISTPKLDRIVDIGNRFGFGAKLTGAGGGGCVIILVNEEKEKELLKELNKEDVRIFNCRMMNEGGSHHHHHH | soluble
13 | MSLIIKGALVWSGKEFVQKDLFVENGEFVEKSSEPVIDAKGYFLVPGFVDSHAHVVGTGFSKLSVQFNDWDELFERDLTSEVVVGRGWFEEPDGSVVERLDRIEAPVFLIRRCGHKAFLNKKAMEVLGVEERYLVENLEKIYEYVFKEKIAEFYRVGEEEFLKHGVTFVQSDDLYGVSVERLLSIIKHSRIRLFEKLKPKDLKPEHFGDLNKRVHVKGVKVFMDGSLGAKTALISGEYDDGTQGVQLLTEEKLEELARFCDEHDLILNVHAIGDSAVSLVLDVLERHRGHRIIHAQFVQEKDLQRVKNTTFSVQPHFFFEDQPLLKKVKVNALHYPFYRMFKAGVSISFSSDSPVSPCDPKYIAEHALKMGFSREETFYLMTEAGASQVGIKTGKIEAGYRADFCLYERNPLLFEDDPIAVFVEGEKIYEKNGSSHEGHHHHHH | soluble
14 | MSLIITDDHMHLYNHLKLKALEQFRDAGGTHVFLVNLLCHHYGIRPTSGKDFREVFERHLSLVEKANKIVKAYAVLGVHPAEITVIGDRIGHEKAAEMMKEALEIAGKYVEEGKAVALKSGRPHYPVSRHVWQLSNDVLRHAFEVAKDVGCAIQLHTESYTKEGMLEIAKMADEVGLKREKVVKHFSPPLIKEFEEIGIFPSVLAGNNNVLKAAEQGNRFTVETDYIDDRKRPGAVLGPKTVPRKVKELIELGYEDIAYKICVENVEKVYGVELEEEGHHHHHH | soluble
15 | MSLIQLRPCPKSYTRDQDKATTPAETVRRVRERLASLDISILAETRRVDVGRLGIPVFLSVCGADARAVMPTRKQMGKGASLEQAQASALMELMERYSFFTFWRDMPGMVEATWSEARNRFGDALIPVDEILHSVHDTLSPDDAVRALDLWRWKFFPATDITHGREVWLPLDWFKKLGEFNGSSAGNTEEESILQGSCELVERHVCCLIDRTQPELPTIDPASLDDPVLLELAAAFERNGIRLVLKDFSMGMPVPTVGAIAWDPATFPERSEIVYTAGTSSSPVKAAIRAVTEVAQLAGDFCTGACYEASGLSKYESLDDIAWLVAGPVVALDTLPSVETDDIRDELAALCDGLAATGHTLYSVSTMNPDVGVNTHYNIVPGFHFRERDRNASLGLFIGRILSEEADAGTALAGLSVLEELYPGAHFLPFFKGMLALRAESHHEAISFFEQAEPLQPEADSRGLAAFYGAYVRTLLTDWQGALPGLDRAVTECPEMKEYFNLRGVCHFKLGDYAQAAQNFAQVLHIDKGAVVDLANLGLCHKFMGDTEKAEELLSAALEIDPGLDFARRHLDEMREGHHHHHH | soluble
16 | MSLISLQSDQLLEATVGQFMIEADKVAHVQVGNNLEHALLVLTKTGYTAIPVLDPSYRLHGLIGTNMIMNSIFGLERIEFEKLDQITVEEVMLTDIPRLHINDPIMKGFGMVINNGFVCVENDEQVFEGIFTRRVVLKELNKHIRSLNKEGGSHHHHHH | soluble
17 | MSLIYSSENDYSILEDKTATGKKRDWKGKKRRTNLMAEHYEALESKIGAPYYGKKAEKLISCAEYLSFKRDPETGKLKLYQAHFCKVRLCPMCAWRRSLKIAYHNKLIVEEANRQYGCGWIFLTLTIRNVKGERLKPQISAMMEGFRKLFQYKKVKTSVLGFFRALEITKNHEEDTYHPHFHVLIPVRKNYFGKNYIKQAEWTSLWKKAMKLDYTPIVDIRRVKGKAKIDAEQIENDVRNAMMEQKAVLEISKYPVKDTDVVRGNKVTEDNLNTVLYLDDALAARRLIGYGGILKEIHKELNLGDAEDGDLVKIEEEDDEVANGAFEVMAYWHPGIKNYIIKEGHHHHHH | soluble
18 | MSLKAANRYVAGEKRSDGLAIARKLQAKGYGISLENIGENTKLLAQCREAKMEFDQLIEDVGAIAPGQTVSFDLSHIGLSYQFDTAYGHLIELAEKANEHEVTLMISMEESTKTDQILAVYRQAAELYSNIGITLQAHLFRTPDDLRKLVQLPGKIRIVKGAYQEPSHLAMERSDYLNNRYLELVDHLVSTNHPVSVATHDQKLLEEMERRQFLQSTDVEIEMLYGIQPSQLKLFKEKGYQTRVYLTYGHEWFLYLCHRLAEYPENIYTALIDIINPSLPKVDDMYEGHHHHHH | not soluble
19 | MSLKARKSWISDKGPLSVSTQCELAGVTRSGYYGQSKSLMPNTEDLELMKLIDEEYTRHPFYGSRRMKRVLLAQGRKVNRKRVQRLMRNLGLAGIAPGPNTSKPHPQHKIYPYLLRGLVITRPNHVWSTDVTYCRLPGGFMYLTAVIDWYSRKVLAWRLSNSLDSSFCVDCLEEAIRKYGMPEIFNTDQGTQYTSEAFTGVLKSHDIRISMDGRGRALDNIFVERLWRNVKQEDLYLKGYETAVEMMRGLTEYFRFYNIERPHQSLGYKTPDEVYESATGGGARIVDKFFQKSVSEGSSEATGPQQEAAEGHHHHHH | soluble
20 | MSLKATYSMLSQVTFPLAEAGYYVVPVALADETFRQNGLTSAGDVHQVSPAKLREIYGADAALYVTVSDYGTRYMVISSATIVTASAKLVDLRSGTTLWTGSATASSEEGNGGNNGGLVGMLITAAVKQIINSSVEDAGYPIAGMTSARLLSAGQPGGLLYGPRSPRYGSDEGHHHHHH | soluble
